Patent US20250257148A1 (CROSSLINK THERAPEUTICS, published 2025)

Assays:
[1] = molecular target: the molecule itself; test: size exclusion chromatography, 1 mM ATP against 1 mM ADP; ATP mediated shift read as homodimerization
Experimental: (§1) To evaluate the behavior of the constructs in the presence of ATP and ADP samples of the purified protein (1 mg each) were buffer-exchanged on PD-10 columns (Cytiva 17085101) according to manufacturer instructions. For the buffer exchange PD-10 desalting columns were equilibrated with target buffer (20 mM Tris-Cl pH 8.0, 50 mM NaCl, 5 mM MgCl₂, 10% glycerol) containing either 1 mM ATP or 1 mM ADP. One milligram (100 μl of 10 mg/ml stock) of protein was added to each column along with 2.4 ml of target buffer, the column was centrifuged at 1000×g for 2 minutes in a 50-ml conical tube, and the eluate was collected. Buffer-exchanged proteins were then concentrated to 0.5 ml (˜60 μM) and loaded onto a Superdex S200 Increase column (Cytiva) equilibrated in the appropriate buffer containing ATP or ADP and eluted at 0.5 ml/min.

[2] = molecular target: the molecule itself; test: size exclusion chromatography, 1 mM ATP against 1 mM ADP; homodimerization
Experimental: as §1

Row | Protein | binding result [1] | binding result [2]
1 | Construct 156: Hisx8-anti-BCMA VHH-(G4S)2-anti-CD3 VHH-(G4S)2-CH1-CH2-TAP1 NBD (Cys-less; modified D-helix; D668N) (other, Single polypeptide expressed in E. coli; Here CH1-CH2 means Coupling Helix 1 and Coupling Helix 2 (the CAP)) MHHHHHHHHEVQLVESGGGLVQAGGSLRLSCAASGRTFTMGWFRQAPGKEREFVAAISLSPTLAYYAESVKGRFTISRDNAKNTVVLQMNSLKPEDTALYYCAADRKSVMSIRPDYWGQGTQVTVSSGGGGSGGGGSQVQLVESGGGLVQPGGSLRLSCAASGSIFSANTMGWYRQAPGKQRELVAGMNTSGSTVYGDSVKGRFTISRDNAKNIAYLQMNSLIPEDTAVYYCTLVQRGPNYWGQGTQVTVSSGGGGSGGGGSETEFFQQNQTGGGGSGLQTVRSFGGGGGSGGSGLLTPLHLEGLVQFQDVSFAYPNRPDVLVLQGLTFTLRPGEVTALVGPNGSGKSTVAALLQNLYQPTGGQLLLDGKPLPQYEHRYLHRQVAAVGQEPQVFGRSLQENIAYGLTQKPTMEEITAAAVKSGAHSFISGLPQGYDTEVDEAGSQLSGGQRQAVALARALIRKPSVLILDNATSALDAGNQLRVQRLLYESPERYSRSVLLITQHLSLVEQADHILFLEGGAIREGGTHQQLMEKKGSYWAMVQAPADAPEGGGGS | binds | 
2 | Construct 157: Hisx8-anti-BCMA VHH-(G4S)2-CH1-CH2-TAP1 NBD (Cys-less; modified D-helix; D668N)-(G4S)2-anti-CD3 VHH (other, Single polypeptide expressed in E. coli) MHHHHHHHHEVQLVESGGGLVQAGGSLRLSCAASGRTFTMGWFRQAPGKEREFVAAISLSPTLAYYAESVKGRFTISRDNAKNTVVLQMNSLKPEDTALYYCAADRKSVMSIRPDYWGQGTQVTVSSGGGGSGGGGSETEFFQQNQTGGGGSGLQTVRSFGGGGGSGGSGLLTPLHLEGLVQFQDVSFAYPNRPDVLVLQGLTFTLRPGEVTALVGPNGSGKSTVAALLQNLYQPTGGQLLLDGKPLPQYEHRYLHRQVAAVGQEPQVFGRSLQENIAYGLTQKPTMEEITAAAVKSGAHSFISGLPQGYDTEVDEAGSQLSGGQRQAVALARALIRKPSVLILDNATSALDAGNQLRVQRLLYESPERYSRSVLLITQHLSLVEQADHILFLEGGAIREGGTHQQLMEKKGSYWAMVQAPADAPEGGGGSGGGGSGGGGSQVQLVESGGGLVQPGGSLRLSCAASGSIFSANTMGWYRQAPGKQRELVAGMNTSGSTVYGDSVKGRFTISRDNAKNIAYLQMNSLIPEDTAVYYCTLVQRGPNYWGQGTQVTVSS |  | binds
3 | Construct 159: CH1-CH2-TAP1 NBD (Cys-less; modified D-helix; D668N)-(G4S)2-anti-CD3 VHH-(G4S)2-anti-BCMA VHH-Hisx8 (other, Single polypeptide expressed in E. coli) METEFFQQNQTGGGGSGLQTVRSFGGGGGSGGSGLLTPLHLEGLVQFQDVSFAYPNRPDVLVLQGLTFTLRPGEVTALVGPNGSGKSTVAALLQNLYQPTGGQLLLDGKPLPQYEHRYLHRQVAAVGQEPQVFGRSLQENIAYGLTQKPTMEEITAAAVKSGAHSFISGLPQGYDTEVDEAGSQLSGGQRQAVALARALIRKPSVLILDNATSALDAGNQLRVQRLLYESPERYSRSVLLITQHLSLVEQADHILFLEGGAIREGGTHQQLMEKKGSYWAMVQAPADAPEGGGGSGGGGSGGGGSQVQLVESGGGLVQPGGSLRLSCAASGSIFSANTMGWYRQAPGKQRELVAGMNTSGSTVYGDSVKGRFTISRDNAKNIAYLQMNSLIPEDTAVYYCTLVQRGPNYWGQGTQVTVSSGGGGSGGGGSEVQLVESGGGLVQAGGSLRLSCAASGRTFTMGWFRQAPGKEREFVAAISLSPTLAYYAESVKGRFTISRDNAKNTVVLQMNSLKPEDTALYYCAADRKSVMSIRPDYWGQGTQVTVSSHHHHHHHH | binds | 
